Test results as given in patent US20060252916A1, “Modified glucagon-like peptide-1 analogs” (ELI LILLY AND COMPANY, priority 2002, published 2006).
No end group written: not given here.

Target: T1, human GLP-1 receptor (Homo sapiens, UniProt P43220)
T1 construct: expressed in transfected cells; host or cells: HEK-293 Aurora CRE-BLAM cells
Assay: In vitro potency, CRE-BLAM fluorescence assay
Format: cell-based
Details: HEK-293 Aurora CRE-BLAM cells expressing the human GLP-1 receptor; 5 hours incubation; control Val^8-GLP-1(7-37)OH
Protocol: “In vitro potency” as used herein is the measure of the ability of a peptide to activate the GLP-1 receptor in a cell-based assay. In vitro potency is expressed as the “EC50” which is the effective concentration of compound that results in 50% activity in a single dose-response experiment. For the purposes of the present invention, in vitro potency is determined using a fluorescence assay that employs HEK-293 Aurora CRE-BLAM cells that stably express the human GLP-1 receptor. These HEK-293 cells have stably integrated a DNA vector having a cAMP response element (CRE) driving expression of the β-lactamase (BLAM) gene. The interaction of a GLP-1 agonist with the receptor initiates a signal that results in activation of the cAMP response element and subsequent expression of β-lactamase. The β-lactamase CCF2/AM substrate that emits fluorescence when it is cleaved by β-lactamase (Aurora Biosciences Corp.) can then be added to cells that have been exposed to a specific amount of GLP-1 agonist to provide a measure of GLP-1 agonist potency. […]
HEK-293 Aurora CRE-BLAM cells expressing the human GLP-1 receptor are seeded at 20,000 to 40,000 cells/well/100 μl into a 96 well black clear bottom plate. […] Generally, fourteen dilutions containing from […] to 30 nanomolar GLP-1 compound were used to generate a dose response curve from which EC50 values could be determined. […]

T1 sequence (P43220 24-463): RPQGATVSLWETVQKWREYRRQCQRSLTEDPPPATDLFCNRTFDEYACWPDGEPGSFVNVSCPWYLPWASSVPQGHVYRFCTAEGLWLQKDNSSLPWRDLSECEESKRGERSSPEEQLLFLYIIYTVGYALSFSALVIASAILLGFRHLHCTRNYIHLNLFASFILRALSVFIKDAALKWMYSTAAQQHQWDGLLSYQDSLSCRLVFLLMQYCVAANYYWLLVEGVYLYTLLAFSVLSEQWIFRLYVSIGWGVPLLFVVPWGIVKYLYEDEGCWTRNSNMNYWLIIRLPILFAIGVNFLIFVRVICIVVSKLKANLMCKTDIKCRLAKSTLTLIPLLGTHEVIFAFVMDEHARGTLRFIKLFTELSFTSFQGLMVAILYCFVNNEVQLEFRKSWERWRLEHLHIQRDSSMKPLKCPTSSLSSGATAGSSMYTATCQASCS

Substance: GLP-1 compound-HSA conjugate of Example 3: Human serum albumin conjugate of the lysine-modified GLP-1 compound SEQ ID NO:22 of Example 3 (HVEGTFTSDVSSYLEEQAAKEFIAWLIKGRGK(3‑(2-pyridyldithio)propanamide)-NH2; also: conjugated to human serum albumin)
- EC50 values compared with Val^8-GLP-1(7-37)OH: about the same as the activity of Val^8-GLP-1(7-37)OH
